From publication PMC5928105

Molecular target: 20S proteasome core (mouse (endogenous in mouse retina)) (UniProt Q9Z2U0)
Experiment: SEC; retinal lysates of WT or PA28α overexpressing mice on Superose-6 (Fig. 1) or Superose-6 Increase; 50 mM Tris-HCl pH 7.4, 40 mM NaCl, 5 mM MgCl2, 10% glycerol, 1 mM DTT, 1 mM ATP; 0.5 ml fractions western-blotted for β1 (20S), PSMD11 (19S) and PA28α (11S)

UniProt Q9Z2U0, sequence (Q9Z2U0 whole entry, looked up): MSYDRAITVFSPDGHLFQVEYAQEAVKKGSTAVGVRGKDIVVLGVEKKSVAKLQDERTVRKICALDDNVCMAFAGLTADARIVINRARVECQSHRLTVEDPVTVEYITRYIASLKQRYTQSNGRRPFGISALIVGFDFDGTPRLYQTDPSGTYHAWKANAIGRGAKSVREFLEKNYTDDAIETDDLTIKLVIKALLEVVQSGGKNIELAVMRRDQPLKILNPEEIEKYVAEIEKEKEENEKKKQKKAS

| percent of PA28α co-eluting with 20S [%] | percent of 20S cores co-eluting with 19S caps [%] | Substance |
| --- | --- | --- |
| 2 | – | 11S caps formed upon PA28α overexpression (homomeric, PA28α subunits alone) (from UniProt P97371 1-249) (complex) |
| – | 45 | 19S proteasome cap (from UniProt Q8BG32 1-422; Q8BJY1 1-504; Q99JI4 1-389; Q3TXS7 1-953) (complex) |
